How the values were obtained:
human BDCA2 (human) [1] = target: human BDCA2 (human) (UniProt Q8WTT0); assay: FACS on CHOK1-hBDCA2 cells; EC50 table under the plot, unit from the x axis (nM); fit of a flat control curve
[2] = target: cynomolgus BDCA2 (cynomolgus monkey); assay: FACS on 293F-cynoBDCA2 cells; EC50 table under the plot, unit from the x axis (nM); fit of a flat control curve [continued) e.]
human BDCA2 (human) [3] = target: human BDCA2 (human) (UniProt Q8WTT0); assay: FACS on CHOK1-hBDCA2 cells; EC50 table under the plot, unit from the x axis (nM); fit of a flat control curve [continued) e.]

Sequence of human BDCA2 (human) (Q8WTT0 whole entry): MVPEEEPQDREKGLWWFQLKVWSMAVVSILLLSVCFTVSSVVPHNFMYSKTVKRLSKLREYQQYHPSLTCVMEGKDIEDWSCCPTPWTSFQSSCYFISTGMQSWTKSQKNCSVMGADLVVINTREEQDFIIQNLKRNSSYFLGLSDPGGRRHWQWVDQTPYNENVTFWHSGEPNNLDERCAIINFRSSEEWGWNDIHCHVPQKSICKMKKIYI
Sequence of cynomolgus BDCA2 (cynomolgus monkey) (chain, as listed by the source): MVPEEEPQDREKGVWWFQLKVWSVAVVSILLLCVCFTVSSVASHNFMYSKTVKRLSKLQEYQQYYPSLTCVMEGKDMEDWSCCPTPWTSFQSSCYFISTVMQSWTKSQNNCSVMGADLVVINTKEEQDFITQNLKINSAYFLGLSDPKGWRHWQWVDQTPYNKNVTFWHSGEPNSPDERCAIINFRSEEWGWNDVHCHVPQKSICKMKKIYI

| EC50 (human BDCA2 (human) [1]) [nM] | EC50 [2] [nM] | EC50 (human BDCA2 (human) [3]) [nM] | Substance |
| --- | --- | --- | --- |
| 61.3 | 21.8 | – | hIgG1 (antibody) |
| – | 20.6 | 176000 | mIgG1 (antibody) |
